Changes are numbered by the printed parent chain.
Tested on: transgenic rice plants
Assay: glyphosate resistance of the EPSPS mutant in transgenic rice plants sprayed with Roundup 41% ammonium glyphosate
Type: in vivo, rice (Nipponbare)
Description: A method for detecting the glyphosate resistance of G1 (SEQ ID NO: 4) provided in Example 1, G3 (SEQ ID NO: 8) provided in Example 2, G4 (SEQ ID NO: 10) provided in Example 3, the soybean EPSPS mutant G5 (SEQ ID NO: 12) provided in Example 4, T1 (SEQ ID NO: 16) provided in Example 5, T3 (SEQ ID NO: 20) provided in Example 6, T4 (SEQ ID NO: 22) provided in Example 7, T5 (SEQ ID NO: 24) provided in Example 8, the wheat EPSPS mutant T6 (SEQ ID NO: 26) provided in Example 9, R1 (SEQ ID NO: 30) provided in Example 10, R3 (SEQ ID NO: 34) provided in Example 11, R4 (SEQ ID NO: 36) provided in Example 12, R5 (SEQ ID NO: 38) provided in Example 13, and the rice EPSPS mutant R6 (SEQ ID NO: 40) provided in Example 14 in the transgenic rice is as follows:
The plasmids (containing the EPSPS mutation gene) of the monoclonal resistant bacteria of pADV5-EPSPS in Examples 1-7 were extracted by a conventional method, followed by double enzyme digestion by Pac1 and BstEII, the small fragments were collected, and then the small fragments were ligated by using T4 DNA ligase, to the pGVP1 vectors that had undergone the same double enzyme digestion, to obtain a pGVP1-EPSPS vector having a structure as shown in FIG. 23.
EHA105 (Agrobacterium tumefaciens) competent cells were transformed by the pGVP1-EPSPS vector, and single colonies were picked up to perform bacterial colony PCR detection to identify positive strains; then the positive strains were inoculated into 1 mL of YEP culture medium containing 50 μg·mL^−1 kanamycin and 50 μg·mL^−1 rifampin to propagate, and then preserved at −80° C., or used for subsequent experiment.
400 μl of bacterium containing the target gene vector preserved at −80° C. was added to a culture dish of solid culture media containing YEP+50 μg/mL rifampin+50 μg/mL kanamycin, and cultured in the dark at 28° C. for 24 hours, then this bacterium was added to an infection culture medium, and this bacterial solution was adjusted to OD=0.2 as an infection liquid.
Sterilization and pre-culturing: mature rice (Nipponbare) seeds were manually shelled, and full seeds without bacterial plaque were selected, and sterilized according to following steps: putting the seeds into a 50 ml sterile centrifuge tube, adding 70% alcohol for disinfection for 30 seconds, pouring out the alcohol, and cleaning the seeds once with sterile water; adding 10-20 ml of 2.6% sodium hypochlorite solution for soaking and sterilizing for 20 minutes, pouring out the sodium hypochlorite solution, and soaking and cleaning the seeds with sterile water for 6-7 times, 3 minutes each time.
Induction and subculturing: the seeds were put on sterile filter paper for drying, and mature embryos were put in an induction culture medium with 12 embryos in each dish; the culture dishes were sealed with a sealing film after the operation was finished, the mature embryos were cultured in the dark at 30° C. for 21-28 days, calluses were transferred into a fresh culture medium, and continuously cultured for about 7-14 days, and spherical calluses with a size of 1-2 mm were taken as infection receptors.
the calluses were inoculated into a centrifuge tube or a culture cup, the prepared Agrobacterium tumefaciens suspension liquid was added for infection for 10 minutes, wherein the calluses were shaken several times; the bacterial solution was poured out, the calluses were taken out, and placed on sterile filter paper to suck out the surface bacterial solution (about 30 minutes); and the calluses were put on sterile filter paper in a culture dish, and cultured in the dark at 25° C. for 2-3 days.
Recovery culturing: the calluses having undergone co-culturing were inoculated in a recovery culture medium, and cultured in the dark at 30° C. for 5-7 days. First round of screening: the calluses were transferred to screening culture media 1 (S1) and cultured in the dark at 30° C. for 14 days. […]

[1] = 1× dosage 1060 g/hectare glyphosate sprayed, recorded on 10th day
[2] = 2× dosage 2120 g/hectare sprayed to plants surviving 1×, recorded 10 days later
[3] = 5× dosage 5300 g/hectare sprayed to plants surviving 2×, recorded 10 days later
[4] = 20× dosage 21200 g/hectare sprayed to plants surviving 5×, recorded 10 days later

B1: G4: soybean EPSPS mutant, SEQ ID NO: 10, mutation S265(247)G (protein)
chain: MAAAEKPSTAPEIVLEPIKDISGTITLPGSKSLSNRILLLAALSEGTTVVDNLLYSEDIHYMLGALRTLGLRVEDDQTTKQAIVEGCGGLFPTIKESKDEINLFLGNAGTAMRPLTAAVVAAGGNASYVLDGVPRMRERPIGDLVAGLKQLGADVDCFLGTNCPPVRVNGKGGLPGGKVKLSGSVSSQYLTALLMAAPLALGDVEIEIVDKLISVPYVEMTLKLMERFGVSVEHSGDWDKFLVHGGQKYKSPGNAFVEGDASSAGYFLAGAAVTGGTITVNGCGTSSLQGDVKFAEVLEKMGAKVTWSENSVTVTGPPQDSSGQKVLQGIDVNMNKMPDVAMTLAVVALFANGQTTIRDVASWRVKETERMIAICTELRKLGATVEEGPDYCVITPPEKLNVTAIDTYDDHRMAMAFSLAACGDVPVTIKDPGCTRKTFPDYFEVLERFTRH
%++&+++ (percentage of plant having medium and high glyphosate resistance to the total number of plants observed) [1]: 26.5%
number of plants denoted by + (low glyphosate resistance) [1]: 23
number of plants denoted by ++ (medium glyphosate resistance) [1]: 9
number of plants denoted by +++ (high glyphosate resistance) [1]: 4
number of plants denoted by − (no glyphosate resistance) [1]: 13
glyphosate resistance / survival of the rice transformed by the EPSPS, in words (1× glyphosate dosage): obviously superior to that of the rice seedlings transformed by G0
%++&+++ (percentage of plant having medium and high glyphosate resistance to the total number of plants observed) [2]: 2.0%
number of plants denoted by + (low glyphosate resistance) [2]: 25
number of plants denoted by ++ (medium glyphosate resistance) [2]: 01
number of plants denoted by +++ (high glyphosate resistance) [2]: 0
number of plants denoted by − (no glyphosate resistance) [2]: 25
glyphosate resistance / survival of the rice transformed by the EPSPS, in words (2× glyphosate dosage): some of the transgenic rice seedlings transformed by G4 still survived
&++&+++ (percentage of plant having medium and high glyphosate resistance to the total number of plants observed) [3]: 0.0%
number of plants denoted by + (low glyphosate resistance) [3]: 7
number of plants denoted by ++ (medium glyphosate resistance) [3]: 0
number of plants denoted by +++ (high glyphosate resistance) [3]: 0
number of plants denoted by − (no glyphosate resistance) [3]: 44
glyphosate resistance / survival of the rice transformed by the EPSPS, in words (5× glyphosate dosage): some of the transgenic rice seedlings transformed by G4 still survived
&++&+++ (percentage of plant having medium and high glyphosate resistance to the total number of plants observed) [4]: 0.0%
number of plants denoted by + (low glyphosate resistance) [4]: 0
number of plants denoted by ++ (medium glyphosate resistance) [4]: 0
number of plants denoted by +++ (high glyphosate resistance) [4]: 0
number of plants denoted by − (no glyphosate resistance) [4]: 51

B2: G5: soybean EPSPS mutant, SEQ ID NO: 12, mutations S265(247)G and P114(101)S (protein)
chain: B1 chain with P114S
%++&+++ (percentage of plant having medium and high glyphosate resistance to the total number of plants observed) [1]: 69.1%
number of plants denoted by + (low glyphosate resistance) [1]: 14
number of plants denoted by ++ (medium glyphosate resistance) [1]: 18
number of plants denoted by +++ (high glyphosate resistance) [1]: 49
number of plants denoted by − (no glyphosate resistance) [1]: 16
glyphosate resistance / survival of the rice transformed by the EPSPS, in words (1× glyphosate dosage): had certain resistance to glyphosate
%++&+++ (percentage of plant having medium and high glyphosate resistance to the total number of plants observed) [2]: 34.0%
number of plants denoted by + (low glyphosate resistance) [2]: 43
number of plants denoted by ++ (medium glyphosate resistance) [2]: 23
number of plants denoted by +++ (high glyphosate resistance) [2]: 10
number of plants denoted by − (no glyphosate resistance) [2]: 21
glyphosate resistance / survival of the rice transformed by the EPSPS, in words (2× glyphosate dosage): some of the rice seedlings containing the soybean EPSPS mutants G3 and G5 still survived
&++&+++ (percentage of plant having medium and high glyphosate resistance to the total number of plants observed) [3]: 7.2%
number of plants denoted by + (low glyphosate resistance) [3]: 53
number of plants denoted by ++ (medium glyphosate resistance) [3]: 6
number of plants denoted by +++ (high glyphosate resistance) [3]: 1
number of plants denoted by − (no glyphosate resistance) [3]: 37
glyphosate resistance / survival of the rice transformed by the EPSPS, in words (5× glyphosate dosage): some of the rice seedlings containing the soybean EPSPS mutants G3 and G5 still survived
&++&+++ (percentage of plant having medium and high glyphosate resistance to the total number of plants observed) [4]: 0.0%
number of plants denoted by + (low glyphosate resistance) [4]: 24
number of plants denoted by ++ (medium glyphosate resistance) [4]: 0
number of plants denoted by +++ (high glyphosate resistance) [4]: 0
number of plants denoted by − (no glyphosate resistance) [4]: 73
glyphosate resistance / survival of the rice transformed by the EPSPS, in words (20× glyphosate dosage): some of the rice seedlings containing the soybean EPSPS mutants G3 and G5 still survived

B3: T0: wild-type wheat EPSPS, amino acid sequence SEQ ID NO: 14; control (protein, listed as Triticum aestivum)
chain: MATSVAAPAAPAGAEEVVLQPIREISGAVQLPGSKSLSNRILLLSALSEGTTVVDNLLNSEDVHYMLEALEALGLSVEADKVAKRAVVVGCGGRFPVEKDAKEEVKLFLGNAGTAMRPLTAAVVAAGGNATYVLDGVPRMRERPIGDLVVGLQQLGADVDCFLGTNCPPVRINGKGGLPGGKVKLSGSISSQYLSSLLMAAPLALEDVEIEIIDKLISVPYVEMTLKLMEHFGVTAEHSDSWDRFYIKGGQKYKSPGNAYVEGDASSASYFLAGAAITGGTVTVEGCGTTSLQGDVKFAEVLEMMGAKVTWTDTSVTVTGPPRQPFGRKHLKAVDVNMNKMPDVAMTLAVVALFADGPTAIRDVASWRVKETERMVAIRTELTKLGATVEEGPDYCIITPPEKLNITAIDTYDDHRMAMAFSLAACAEVPVTIRDPGCTRKTFPNYFDVLSTFVKN
%++&+++ (percentage of plant having medium and high glyphosate resistance to the total number of plants observed) [1]: 0.0%
number of plants denoted by + (low glyphosate resistance) [1]: 1
number of plants denoted by ++ (medium glyphosate resistance) [1]: 0
number of plants denoted by +++ (high glyphosate resistance) [1]: 0
number of plants denoted by − (no glyphosate resistance) [1]: 32
glyphosate resistance / survival of the rice transformed by the EPSPS, in words (1× glyphosate dosage): had no resistance, one was seriously damaged, and all the others died
%++&+++ (percentage of plant having medium and high glyphosate resistance to the total number of plants observed) [2]: 0.0%
number of plants denoted by + (low glyphosate resistance) [2]: 0
number of plants denoted by ++ (medium glyphosate resistance) [2]: 0
number of plants denoted by +++ (high glyphosate resistance) [2]: 0
number of plants denoted by − (no glyphosate resistance) [2]: 33
&++&+++ (percentage of plant having medium and high glyphosate resistance to the total number of plants observed) [3]: 0.0%
number of plants denoted by + (low glyphosate resistance) [3]: 0
number of plants denoted by ++ (medium glyphosate resistance) [3]: 0
number of plants denoted by +++ (high glyphosate resistance) [3]: 0
number of plants denoted by − (no glyphosate resistance) [3]: 33
&++&+++ (percentage of plant having medium and high glyphosate resistance to the total number of plants observed) [4]: 0.0%
number of plants denoted by + (low glyphosate resistance) [4]: 0
number of plants denoted by ++ (medium glyphosate resistance) [4]: 0
number of plants denoted by +++ (high glyphosate resistance) [4]: 0
number of plants denoted by − (no glyphosate resistance) [4]: 33

Source: patent US11584938B2, “Plant EPSPS mutant containing L195P and S247G mutations and encoding gene and use thereof” (GEVOTO LLC, priority 2017, dated 2023)
